Key:
[1] = biological target: E2s, protruding homodimer domain of HEV capsid protein (wild type) (Hepatitis E virus (HEV)) (UniProt Q81871); experiment: non-reducing SDS-PAGE; wild type E2s and its Ala mutants (expressed in E. coli) on non-reducing SDS-PAGE; dimer or monomer band
[2] = biological target: E2s mutant Gln568 to Ala (Hepatitis E virus (HEV)) (UniProt Q81871); experiment: as above
monoclonal antibody 8C11 = experiment: CLIA (chemiluminescent immunoassay); conditions: rE2-coated microplate; 8C11-HRP only; parent: est. 1.0e7; read off a plot
[3] = biological target: E2s mutant Gln531 to Ala (Hepatitis E virus (HEV)) (UniProt Q81871); experiment: non-reducing SDS-PAGE; wild type E2s and its Ala mutants (expressed in E. coli) on non-reducing SDS-PAGE; dimer or monomer band
[4] = biological target: E2s mutant Pro604 to Ala (Hepatitis E virus (HEV)) (UniProt Q81871); experiment: as above
[5] = biological target: E2s mutant Ile529Ala (Hepatitis E virus (HEV)) (UniProt Q81871); experiment: as above
[6] = biological target: E2s mutant Asn560Ala (Hepatitis E virus (HEV)) (UniProt Q81871); experiment: as above
[7] = biological target: E2s mutant Thr489 to Ala (Hepatitis E virus (HEV)) (UniProt Q81871); experiment: as above
[8] = biological target: E2s mutant Ser527 to Ala (Hepatitis E virus (HEV)) (UniProt Q81871); experiment: as above

Question: “E2s, protruding homodimer domain of HEV capsid protein (wild type) (from UniProt Q81871 455-603) (domain or fragment)” was tested. Which stoichiometry N [1] did it give?
Answer: Its stoichiometry N is 2.

Question: How did the stoichiometry N [2] turn out when “E2s mutant Gln568 to Ala (from UniProt Q81871 455-603) (domain or fragment)” was run?
Answer: The stoichiometry N was 2.

Question: How did the response (monoclonal antibody 8C11) turn out when “E2s, protruding homodimer domain of HEV capsid protein (wild type) (from UniProt Q81871) I529A” was run?
Answer: The response was 9.7e+06 RLU/s.

Question: With “E2s mutant Gln531 to Ala (from UniProt Q81871 455-603) (domain or fragment)” as the substance, how does the stoichiometry N [3] read?
Answer: Its stoichiometry N is 2.

Question: With “E2s mutant Pro604 to Ala (from UniProt Q81871 455-603) (domain or fragment)” as the substance, how does the stoichiometry N [4] read?
Answer: The stoichiometry N was 2.

Question: With “E2s mutant Ile529Ala (from UniProt Q81871 455-603) (domain or fragment)” as the substance, how does the stoichiometry N [5] read?
Answer: Its stoichiometry N is 2.

Question: For “E2s mutant Asn560Ala (from UniProt Q81871 455-603) (domain or fragment)”, which stoichiometry N [6] is on record?
Answer: The stoichiometry N was 2.

Question: “E2s mutant Thr489 to Ala (from UniProt Q81871 455-603) (domain or fragment)” was tested. Which stoichiometry N [7] did it give?
Answer: The stoichiometry N was 2.

Question: Which stoichiometry N [8] does the source give for “E2s mutant Ser527 to Ala (from UniProt Q81871 455-603) (domain or fragment)” here?
Answer: The stoichiometry N was 2.

Question: “E2s, protruding homodimer domain of HEV capsid protein (wild type) (from UniProt Q81871) N560A” was tested. Which response (monoclonal antibody 8C11) did it give?
Answer: Its response is 8.7e+06 RLU/s.

— publication PMC4259887
